Assay results from patent publication CN113150131A (SHANGHAI PUBLIC HEALTH CLINICAL CT, dated 2021).
Read-outs that look alike come from different tables or passages of the source.

T1: 2C-121-270aa小肽段 #3 (CVA10病毒 (coxsackievirus A10))
T1 peptide: PGTGKSLATGIIARA

T2: 2C-121-270aa小肽段 #4 (CVA10病毒 (coxsackievirus A10))
T2 peptide: SLATGIIARAIADKY

B1: M3-8单克隆抗体 (M3-8 mAb) (antibody, V domains shown)
VH: QVQLQQSGAELVRPGASVKLSCKALGYTFADNEMHWVKQTPVHGLEWIGGIHPGSGGTAYNQKFKGKATLTADKSSSTAYMELSSLTSEDSAVYYCTRDYYWYDEGFDYWGQGTTLTVSS
VL: DIVMTQTPLSLPVSLGDQASISCRSSQSLVHSNGNTYLHWYLQKPGQSPELLIYKVSNRFSGVPDRFSGSGSGTDFTLKISRVEAEDLGVYFCSQSTHIPLTFGAGTKLELK
notes: also called M3-8细胞上清; 纯化的单克隆抗体(M3-8 mAb)
B2: M3-8重组抗体 (antibody, V domains shown)
VH: B1 VH
VL: B1 VL
notes: also called M3-8 mAb重组抗体

Tests used:
[1] = target: T1, 2C-121-270aa小肽段 #3; test: ELISA on coated synthetic peptides
[2] = target: T2, 2C-121-270aa小肽段 #4; test: ELISA on coated synthetic peptides
[3] = target: T3, CVB3病毒2C蛋白 (CVB3, UniProt P03313 1101-1429)
T3 construct: domain: 2C蛋白

[4] = target: T4, 2C-121-270aa肽段 (CVA10病毒 (coxsackievirus A10)); test: western blot on truncated 2C fragments expressed in 293T cells
T4 construct: Expressed in 293T cells from pcDNA6.0 and detected with a Flag antibody, so it carries a Flag tag

[5] = target: T3, CVB3病毒2C蛋白; remark: listed apart in the source
[6] = target: T5, CVA10病毒2C蛋白 (CVA10病毒 (coxsackievirus A10), UniProt Q65900 1112-1440); test: western blot on virus-infected RD cells
T5 construct: In ELISA it was purified 2C protein from prokaryotic expression, coated on the plate; In western blot, immunofluorescence and flow cytometry it was the 2C protein made in CVA10-infected RD cells (intracellular); also called CVA10-2C

Binder	binding result [1]	binding result [2]	binding result [3]	binding result [4]	binding result [5]	binding result [6]
B1	binds	binds	no binding	binds		
B2					no binding	binds
